Legend:
[1] = target: HIV-1 gp120 protein from the JRCSF.JB strain (HIV-1, UniProt P20871 32-503); assay: BLI
[2] = target: HIV-1 gp120 protein from the YU2.DG strain (HIV-1, UniProt P35961 32-498); assay: BLI

B1: FD22 (antibody)
chain 1: QVQLSQSGGGAVQPGKSLTLSCRAYGFHLFSYVVVWVRQTPQNGLEWVAGAASGGWPQEFMNSVRGRFSISRDDYTVSLQMNALRVDDSGLYFCAQERGLHRLDGAVKFGRWFRAWGQGSQVVVTS
chain 2: QSALTQPASVSGSPGQSITLSCTGADNSVSWYQVVPGRAPKLLIFEVNVRPSEVSDRFSGSKSGDTASLTISRLQIEDESDYYCVTRRGDVTYLFGSGTRVSVL
modifications: biotin (EZ-Link NHS-LC-Biotin) in the competition ELISA only | biotin (EZ-Link NHS-LC-Biotin) in the competition ELISA only
[1]
  Kd: 18.1 nM
[2]
  Kd: 12.1 nM

Source: article PMC12149299 (2025)
